B1: FC08 (antibody, V domains shown)
VH: VQLLQQSGAEVKKPGSSVKVSCKASGGTFSSYAISWVRQAPGQGLEWMGGIIPILGIANYAQKFQGRVTITADKSTSTAYMELSSLRSEDTAVYYCVRERGYSGYGAAYYFDYWGQGTLVTVSS
VL: QSVLTQPPSVSGAPGQRVTISCTGSSSNIGAGYDVHWYQQLPGTAPKLLIYGNSNRPSGVPDRFSGSKSGTSASLAITGLQAEDEADYYCQSYDSSLSGSVFGGGTKLTVL
notes: also called FC08抗体
B2: FC11 (antibody, V domains shown)
VH: EVQLLESGGGVVQPGRSLRLSCAASGFTFSYYGMHWVRQAPGTGLEWVAVISYDGSNEYYADSVKGRFTISRDNSKNTLYLQMNSLRAEDTAVYYCAKAMFLGDSSGLTGLDMDVWGQGTTVTVSS
VL: DIELTQSPGTLSLSPGERATLSCRASQSVSSYLAWYQQKPGQAPRLLIYDASNRATGIPARFSGSGSGTDFTLTISSLEPEDFALYYCQQRGNWPPTFGGGTKLEIK
B3: FC05 (antibody, V domains shown)
VH: VQLLEQSGAEVKKPGASVRVSCKVSGYTLPEVAMHWVRQAPGKGLEWMGGFDPEDGETIYAQKFQGRVTMTEDTSTDTAYMELSSLRSEDTAVYYCATTTPFSSSFWFDPWGQGTLVTVSS
VL: QSVLTQAPSVSGAPGQKVTISCSGSSSNIGNNYVSWYQQLPGTAPKLLIYDNNKRPSGIPDRFSGSKSGTSATLGITGLQTGDEADYYCGTWDSSLSAVVFGGGTKLTVL

Legend:
[1] = biological target: SARS-CoV-2 Spike蛋白(刺突蛋白) of the isolate BetaCoV/JS03/human/2020, on live virus (SARS-CoV-2, UniProt P0DTC2 14-1273); experiment: cell-based or functional assay
[2] = biological target: 重组SARS-CoV-2刺突蛋白胞外区 (extra cellular domain of spike protein, S-ECD) (SARS-CoV-2, UniProt P0DTC2 14-1213); experiment: SPR, Biacore 8K, S-ECD immobilised on a CM5 chip, antibody 125-7.8 nM
[3] = biological target: SARS-CoV-2 Spike蛋白(刺突蛋白) of the isolate BetaCoV/JS03/human/2020, on live virus (SARS-CoV-2, UniProt P0DTC2 14-1273); experiment: cell-based or functional assay; remark: listed apart in the source
[4] = biological target: 重组SARS-CoV-2刺突蛋白胞外区 (extra cellular domain of spike protein, S-ECD) (SARS-CoV-2, UniProt P0DTC2 14-1213); experiment: SPR, Biacore 8K, S-ECD immobilised on a CM5 chip, antibody 125-7.8 nM; remark: listed apart in the source

Row | Binder | IC50(ng/ml), 体外中和实验 (live virus, Vero E6, CPE) [1] | Kd [2] | IC50(ng/ml), 体外中和实验 (live virus, Vero E6, CPE) [3] | Kd [4]
1 | B1 | 325 ng/mL | 0.8 nM |  | 
2 | B2 |  |  | 818 ng/mL | 0.5 nM
3 | B3 |  |  | 142 ng/mL | 

From CN111620945A (JIANGSU DISEASE CONTROL AND PREVENTION CENTER JIANGSU …, dated 2020)
